Reference: patent US20200129630A1, “METHODS FOR TREATING CANCER” (BicycleRD Limited, priority 2018, published 2020)
Numbered stars: 1 amine (or outer) side, 2 acyl side, 3 side chain; on linkers, the order of the positions; unused ones are H or OH. Bridge positions count the residues as written; N and C are the ends. Square brackets hold non-standard residues; d marks the D form. Peptide text beside a SMILES is read from it. * marks the point of attachment. X1 = COc1cc2cc(c1Cl)N(C)C(=O)C[C@H](OC(=O)[C@H](C)N(C)C(=O)CCSSC(C)CCC(=O)*)[C@]1(C)O[C@H]1[C@H](C)[C@@H]1C[C@@](O)(NC(=O)O1)[C@H](OC)/C=C/C=C(\C)C2; 1Nal = N[C@@H](Cc1cccc2ccccc12)C(=O)O; TBMB = c1c(C[*:1])cc(C[*:3])cc1C[*:2]; Tle = CC(C)(C)[C@H](N)C(=O)O; βAla = NCCC(=O)O; Sar = CNCC(=O)O

Columns and labels:
[1] = molecular target: hemopexin domain of MT1-MMP (Homo sapiens, UniProt P50281); test: Binding to hemopexin domain of MT1-MMP
Method: Bicycle drug conjugates (BDCs) with a variety of linkers and cytotoxic payloads were prepared which retained binding to MT1.
BT1718 is a BDC that binds to MT1-MMP and upon cleavage of its disulphide linker, releases the cytotoxic tubulin inhibitor, DM1 (also referred to as DM1-SH).

[2] = Plasma protein binding, dog; type: in vitro ADME; details: read-out: free fraction
Method: Plasma protein binding of BT1718 was also assessed. The mean plasma protein binding of the BT1718 peptide ranged from 87% to 98%, with the free fraction of BT1718 being 13% in human, 2.6% in rats, 7.5% in mice, 3.8% in monkey and 1.5% in dog plasma, the results had no correlation to the plasma and whole blood stability data. […] Plasma protein binding of unconjugated DM1, has previously been reported, with the unbound fraction being 7% in human and monkey and 3% in rat.

[3] = Non-GLP toxicity studies, rat; type: in vivo
Method: In a GLP-compliant study in Cynomolgus monkeys, the highest non-severely toxic dose (HNSTD) of BT1718 was established to be 18 mg/m^2 administered twice weekly, equivalent to a human dose of 0.48 mg/kg. In a GLP-compliant study in the rat, the MTD was not reached with the highest administered dose 6 mg/m^2 twice weekly. At this dose level, there was kidney toxicity (with no effect on clinical condition) and also testicular toxicity. After 28 days off-dose, there was evidence of partial recovery of kidney-related findings, but no recovery of testicular effects at this dose level. […] Therefore, the MTD for rat for twice weekly dosing was considered to be between 1 and 1.5 mg/kg.

[4] = CNS behavioral model (Irwin study); type: in vivo; details: single dose 0.2, 0.5 or 1 mg/kg, rats
Method: As part of the Good Laboratory Practice (GLP)-compliant toxicity studies, a core battery of safety pharmacology tests were performed. […] Electrocardiogram (ECG) and respiratory plethysmography measurements were taken in monkeys dosed at 0.2, 0.5, 1 and 1.5 mg/kg (2.4, 6, 12 and 18 mg/m^2 respectively) twice weekly on Day 4, Day 22 (following 2nd and 7th dose) and in the recovery period (for animals dosed with 0, 6 and 12 mg/m^2 twice weekly). Blood pressure (BP) measurements were also evaluated in the same monkeys on Day 1 and Day 25 and in the recovery period. […] It is therefore concluded that BT1718 has no cardiac, respiratory or behavioral liability at the doses and schedule tested in the GLP toxicity studies.

[5] = CD1 mouse dose response PK study
[6] = Stability in whole blood in vitro, mouse; type: in vitro ADME; details: 37° C.
Method: (§1) The stability of BT1718 was assessed in plasma and whole blood from humans, monkey, dog, mouse and rat. […] The mechanism for the difference in stability of the BT1718 peptide in whole blood between the different species is unknown.

[7] = nu/nu BALB/c mouse PK study; type: in vivo; details: plasma, 15 mg/m2, 15 mg/m^2 IV
[8] = Stability in plasma in vitro, dog; type: in vitro ADME; details: 37° C.
Method: as §1

[9] = LC-MS/MS quantification of DM1 in patient tumor samples; type: in vivo, patients; details: three patient tumor samples
Method: A quantitative high performance liquid chromatography-tandem mass spectrometry (LC-MS/MS) method for the quantification of DM1 in tissue samples was developed.
DM1 was administered as complexed with a bicyclic peptide in […]. In order to determine the concentration of the free DM1 the conjugated molecule was reduced and subsequently derivatized with vinyl pyridine.
The same sample preparation procedure used for PK determination in the GLP pre-clinical studies, is applied for the determination of DM1 in tissue samples, In short: after tissue homogenization samples were reduced with TCEP prior derivatization by vinyl-pyiridine. […]
The homogenization method was optimized as follows: • 1) Thaw the tissue samples at room temperature. • 2) Weight the desired amount of tissue in a Precellys 2 mL Reinforced tube on an Analytical Balance. • 3) Use the weight of the tissue to calculate the volume of solution. […] Homogenization solution: (NaCl (0.9%): SDS (0.2 mg/mL) (50:50 v/v %)) • 4) Add the calculated amount of solution to the tissue. • 5) Vortex for approximately 5 seconds. • 6) Pre-cool the samples in a wet ice bath for approximately 8 minutes • 7) Run the Precellys-24 Dual homogenizer at 5000 rpm in five sessions of 40 seconds. • 8) Centrifuge the homogenate samples 3 minutes at 3000 rpm at 4° C. using a 5810-R centrifuge.

[10] = Stability in whole blood in vitro, human; type: in vitro ADME; details: 37° C.
Method: as §1

[11] = Repeat dose toxicokinetics, rat and monkey; type: in vivo; details: both sexes, plasma, intravenous, rat or monkey, irrespective of dose, read-out: Plasma t1/2
Excerpt: In a repeat dose experiment with BT1718 no significant gender-related differences in the TK parameters for the rat or monkey were noted. Exposure in both the rat and monkey increased approximately linearly with dose and was maintained for 28 days on repeat dosing. […] Plasma clearance and volume of distribution were similar across BT1718 dose and consistent with the PK studies.

EBC-1 xenograft = test: Dosing schedule experiment in EBC-1 xenograft mice; details: 60 mg/m^2 once weekly
Method: Anti-tumor activity was compared when equivalent total weekly doses were administered either once, twice or three times weekly or once daily.

[12] = Stability in plasma in vitro, human; type: in vitro ADME; details: 37° C.
Method: as §1

[13] = male, CD1, mouse, plasma, iv, 15 mg/m2
[14] = male, CD1, mouse, plasma, iv, 30 mg/m2
[15] = male, CD1, mouse, plasma, iv, 60 mg/m2

COc1cc2cc(c1Cl)N(C)C(=O)C[C@H](OC(=O)[C@H](C)N(C)C(=O)CCSSC(C)CCC(=O)NCCC(=O)N(C)CC(=O)N(C)CC(=O)N(C)CC(=O)N(C)CC(=O)N(C)CC(=O)N(C)CC(=O)N(C)CC(=O)N(C)CC(=O)N(C)CC(=O)N(C)CC(=O)N[C@@H](C)C(=O)N[C@H]1CSCc3cc4cc(c3)CSC[C@H](NC(=O)[C@@H](C)NC(=O)[C@H](Cc3cccc5ccccc35)NC(=O)[C@H](CCC(=O)O)NC(=O)[C@H](CC(N)=O)NC(=O)[C@@H](C)NC1=O)C(=O)N[C@@H](CCC(=O)O)C(=O)N[C@@H](CC(=O)O)C(=O)N[C@@H](Cc1ccccc1)C(=O)N[C@@H](Cc1ccc(O)cc1)C(=O)N[C@@H](CC(=O)O)C(=O)N[C@@H](C(C)(C)C)C(=O)N[C@H](C(N)=O)CSC4)[C@]1(C)O[C@H]1[C@H](C)[C@@H]1C[C@@](O)(NC(=O)O1)[C@H](OC)/C=C/C=C(\C)C2 (stereo partly shown) [BT1718] ({X1-βAla}-[Sar][Sar][Sar][Sar][Sar][Sar][Sar][Sar][Sar][Sar]AC[dA]NE[1Nal][dA]CEDFYD[Tle]C-NH2; linker 12-18-25 via TBMB (inferred))
Ki [1]: 1.75 ± 0.92 nM
fraction unbound [2]: 0.015
tolerability ([3]; non-GLP rat, 9 mg/m^2 twice weekly): not well tolerated
GI findings ([3]; rat 5.03 mg/kg (30.2 mg/m^2) twice): Single cell necrosis of the ileum
bladder findings ([3]; rat, single administration of 40 mg/m^2): Bladder epithelial degeneration
peripheral haematology ([3]; rats 1.5 mg/kg, 9 mg/m^2 twice weekly): significant decreases in WBCs
hepatic findings ([3]; rats 3.35 mg/kg, 20.1 mg/m^2 twice weekly): Elevated liver enzymes
renal findings ([3]; rats >1 mg/kg, 6 mg/m^2 twice weekly): Moderate renal tubule degeneration and epithelial mitosis
CNS behavioral effects (Irwin study) [4]: No effects
AUC ([5]; CD1, mouse, plasma, intravenous, 10 mg/kg): 5.3 µM·h
AUC ([5]; CD1 mouse, male, 30 mg/m^2 IV): 5.3
AUC ([5]; CD1 mouse, male, 60 mg/m^2 IV): 11.6
AUC ([5]; male, CD1, mouse, plasma, intravenous, 20 mg/kg): 11.6 µM·h
AUC [5, 13]: 2.8 µM·h
Cmax [5, 13]: 9.3 µM
Vd [5, 13]: 0.2 L/kg
clearance [5, 13]: 8.4 mL/min/kg
half-life [5, 13]: 19.8 min
Cmax ([5]; male, CD1, mouse, plasma, iv, 20 mg/kg): 38.2 µM
Vd [5, 14]: 0.27 L/kg
clearance [5, 14]: 9 mL/min/kg
half-life [5, 14]: 20.4 min
Vd [5, 15]: 0.22 L/kg
clearance [5, 15]: 8.2 mL/min/kg
half-life [5, 15]: 20.4 min
half-life [6]: > 1440 min
AUC [7]: 1.7 ± 0.3 µM·h
clearance [7]: 10.6 ± 1.5 mL/min/kg
half-life [7]: 25.8 ± 2.4 min
Cmax ([7]; read-out: C0/Cmax): 5.8 ± 0.94 µM
Vd ([7]; read-out: Vdss): 0.26 ± 0.08 L/kg
half-life [8]: > 360 min
delivery of DM1 to tumor [9]: delivery of DM1 to tumor in two patients
half-life [10]: 120 to 240 min
half-life [11]: 12 to 33.6 min
weight loss (EBC-1 xenograft): > 10%
half-life [12]: > 360 min
